{"source": "patent US20230263906A1", "about": "“HIGH AFFINITY IL-2 RECEPTOR AGONISTS AND SYNTHETIC NANOCARRIER DOSE SPARING” (Selecta Biosciences, Inc., priority 2022, published 2023)", "molecules": {"B1": {"name": "ovalbumin (protein, UniProt P01012 2-386, looked up)", "Ovalbumin": "GSIGAASMEFCFDVFKELKVHHANENIFYCPIAIMSALAMVYLGAKDSTRTQINKVVRFDKLPGFGDSIEAQCGTSVNVHSSLRDILNQITKPNDVYSFSLASRLYAEERYPILPEYLQCVKELYRGGLEPINFQTAADQARELINSWVESQTNGIIRNVLQPSSVDSQTAMVLVNAIVFKGLWEKAFKDEDTQAMPFRVTEQESKPVQMMYQIGLFRVASMASEKMKILELPFASGTMSMLVLLPDEVSGLEQLESIINFEKLTEWTSSNVMEERKIKVYLPRMKMEEKYNLTSVLMAMGITDVFSSSANLSGISSAESLKISQAVHAAHAEINEAGREVVGSAEAGVDAASVSEEFRADHPFLFCIKHIATNAVLFFGRCVSP", "notes": "model antigen"}}, "test_system": "Ovalbumin-specific OTII T cells", "experiment": "Example 5: adoptive transfer of ovalbumin-specific OTII T cells, Foxp3 expression", "type": "in vivo, mice", "conditions": "OTII T cells adoptively transferred prior to treatment", "experimental": "However, expansion of antigen-specific Treg can be more desirable than expansion of total Treg. The ability of ImmTOR plus antigen combined with IL-2 mutein to induce and/or expand antigen-specific Treg was evaluated. Ovalbumin-specific OTII T cells were adoptively transferred into mice prior to treatment with ovalbumin and ImmTOR and/or IL-2 mutein.", "data": [{"molecule": "B1", "values": [{"measurement": "percentage of Foxp3+OTII cells", "value": "~6", "unit": "%"}]}]}
